Measured values: patent publication US20190300590A1 (PROTAGONIST THERAPEUTICS, published 2019)
Bridges are numbered along the chain shown (N, C = ends). [ ]: non-standard residue; d: D form. NMeW = CN[C@@H](Cc1c[nH]c2ccccc12)C(=O)O; 1Nal = N[C@@H](Cc1cccc2ccccc12)C(=O)O; NMeH = CN[C@@H](Cc1c[nH]cn1)C(=O)O; AEA = NCCOCC(=O)O; βAla = NCCC(=O)O; Sar = CNCC(=O)O

T1: IL23R_huFC (human, UniProt Q5VWK5 24-353)
T1 sequence (looked up): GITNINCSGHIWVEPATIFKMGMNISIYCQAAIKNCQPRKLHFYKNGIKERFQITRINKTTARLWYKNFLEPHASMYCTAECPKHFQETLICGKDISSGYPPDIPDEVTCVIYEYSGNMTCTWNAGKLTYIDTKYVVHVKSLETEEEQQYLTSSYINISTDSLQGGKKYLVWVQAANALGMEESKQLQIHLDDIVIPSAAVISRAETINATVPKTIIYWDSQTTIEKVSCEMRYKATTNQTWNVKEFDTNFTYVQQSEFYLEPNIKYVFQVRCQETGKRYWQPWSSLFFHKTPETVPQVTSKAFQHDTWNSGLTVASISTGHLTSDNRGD


Molecular target: T1, IL23R_huFC
Assay: IL23-IL23R competitive ELISA

Binder | IC50 [nM]
H-CKDWKCYWHIYG-NH2 (disulfide 1-6 (inferred)) [Hy-CKDWKCYWHIYG-NH2] | > 1000
H-CTDWVCYWHEYS-NH2 (disulfide 1-6 (inferred)) [Hy-CTDWVCYWHEYS-NH2] | > 1000
H-CHTWVCYWHEFS-NH2 (disulfide 1-6 (inferred)) [Hy-CHTWVCYWHEFS-NH2] | > 1000
H-CSDWECYWHIFG-NH2 (disulfide 1-6 (inferred)) [Hy-CSDWECYWHIFG-NH2] | > 1000
H-CGNWECYWHVYG-NH2 (disulfide 1-6 (inferred)) [Hy-CGNWECYWHVYG-NH2] | > 1000
Ac-CQTWQCYWR[Sar]NG[AEA][dK]-NH2 (disulfide 1-6; SMILES CC(=O)N[C@H]1CSSC[C@@H](C(=O)N[C@@H](Cc2ccc(O)cc2)C(=O)N[C@@H](Cc2c[nH]c3ccccc23)C(=O)N[C@@H](CCCNC(=N)N)C(=O)N(C)CC(=O)N[C@@H](CC(N)=O)C(=O)NCC(=O)NCCOCC(=O)N[C@H](CCCCN)C(N)=O)NC(=O)[C@H](CCC(N)=O)NC(=O)[C@H](Cc2c[nH]c3ccccc23)NC(=O)[C@H]([C@@H](C)O)NC(=O)[C@H](CCC(N)=O)NC1=O) [Ac-CQTWQCYWR-[Sarc]-NG-[AEA]-[(D)-Lys]-NH2] | > 1000
H-AADWCAYWCTFG-NH2 (disulfide 5-9 (inferred)) [Hy-AADWCAYWCTFG-NH2] | > 1000
H-CADWCCYWCTFG-NH2 (disulfide (positions not given here); also: disulfide pairing not given here) [Hy-CADWCCYWCTFG-NH2, listing 1 of 3 here] | > 1000
H-CQTWVCYWHTYG-NH2 (disulfide 1-6 (inferred)) [Hy-CQTWVCYWHTYG-NH2] | > 1000
CXDWVCYXHTF ([Sarc]; [1-Nal]; disulfide) [Hy-C-[Sarc]-DWVCY-[1-Nal]-HTF-OH] | > 1000
CADWVCYXHTFG (not fully specified; [1-BIP]; -NH2; disulfide) [Hy-CADWVCY-[1-BIP]-HTFG-NH2] | > 1000
Ac-CADWVCY[1Nal]FTFG-NH2 (disulfide 1-6; SMILES CC(=O)N[C@H]1CSSC[C@@H](C(=O)N[C@@H](Cc2ccc(O)cc2)C(=O)N[C@@H](Cc2cccc3ccccc23)C(=O)N[C@@H](Cc2ccccc2)C(=O)N[C@H](C(=O)N[C@@H](Cc2ccccc2)C(=O)NCC(N)=O)[C@@H](C)O)NC(=O)[C@H](C(C)C)NC(=O)[C@H](Cc2c[nH]c3ccccc23)NC(=O)[C@H](CC(=O)O)NC(=O)[C@H](C)NC1=O) [Ac-CADWVCY-[1-Nal]-FTFG-NH2] | > 1000
Ac-CADWVCY[1Nal][dA]TFG-NH2 (disulfide 1-6; SMILES CC(=O)N[C@H]1CSSC[C@@H](C(=O)N[C@@H](Cc2ccc(O)cc2)C(=O)N[C@@H](Cc2cccc3ccccc23)C(=O)N[C@H](C)C(=O)N[C@H](C(=O)N[C@@H](Cc2ccccc2)C(=O)NCC(N)=O)[C@@H](C)O)NC(=O)[C@H](C(C)C)NC(=O)[C@H](Cc2c[nH]c3ccccc23)NC(=O)[C@H](CC(=O)O)NC(=O)[C@H](C)NC1=O) [Ac-CADWVCY-[1-Nal]-[(D)Ala]-TFG-NH2] | > 1000
Ac-CADWVCY[1Nal]H[βAla]FG-NH2 (disulfide 1-6; SMILES CC(=O)N[C@H]1CSSC[C@@H](C(=O)N[C@@H](Cc2ccc(O)cc2)C(=O)N[C@@H](Cc2cccc3ccccc23)C(=O)N[C@@H](Cc2c[nH]cn2)C(=O)NCCC(=O)N[C@@H](Cc2ccccc2)C(=O)NCC(N)=O)NC(=O)[C@H](C(C)C)NC(=O)[C@H](Cc2c[nH]c3ccccc23)NC(=O)[C@H](CC(=O)O)NC(=O)[C@H](C)NC1=O) [Ac-CADWVCY-[1-Nal]-H-[b-Ala]-FG-NH2] | > 1000
Ac-CADWVCY[1Nal]H[dA]FG-NH2 (disulfide 1-6; SMILES CC(=O)N[C@H]1CSSC[C@@H](C(=O)N[C@@H](Cc2ccc(O)cc2)C(=O)N[C@@H](Cc2cccc3ccccc23)C(=O)N[C@@H](Cc2c[nH]cn2)C(=O)N[C@H](C)C(=O)N[C@@H](Cc2ccccc2)C(=O)NCC(N)=O)NC(=O)[C@H](C(C)C)NC(=O)[C@H](Cc2c[nH]c3ccccc23)NC(=O)[C@H](CC(=O)O)NC(=O)[C@H](C)NC1=O) [Ac-CADWVCY-[1-Nal]-H-[(D)Ala]-FG-NH2] | > 1000
H-CAD[NMeW]VCY[1Nal]HTF-OH (disulfide 1-6 (inferred)) [Hy-CAD-[N-Me-Trp]-VCY-[1-Nal]-HTF-OH] | > 1000
H-CQSWECYWHYYG-NH2 (disulfide 1-6 (inferred)) [Hy-CQSWECYWHYYG-NH2] | > 1000
CADXVCYWHTFG ([2-Nal]; -NH2; disulfide) [Hy-CAD-[2-Nal]-VCYWHTFG-NH2] | > 1000
H-ACDWCCYWCTFG-NH2 (disulfide (positions not given here); also: disulfide pairing not given here) [Hy-ACDWCCYWCTFG-NH2] | > 1000
CADWVCYXHTFG ([Tic]; -NH2; disulfide) [Hy-CADWVCY[Tic]-HTFG-NH2] | > 1000

Binder | IC50 [nM]
H-CETWECYWHSFS-NH2 (disulfide 1-6 (inferred)) [Hy-CETWECYWHSFS-NH2] | > 1000
CADXVCYWHTFG ([Tic]; -NH2; disulfide) [Hy-CAD-[Tic]-VCYWHTFG-NH2] | > 1000
H-CADWVCY[1Nal][NMeH]TF-OH (disulfide 1-6; SMILES CC(C)[C@@H]1NC(=O)[C@H](Cc2c[nH]c3ccccc23)NC(=O)[C@H](CC(=O)O)NC(=O)[C@H](C)NC(=O)[C@@H](N)CSSC[C@@H](C(=O)N[C@@H](Cc2ccc(O)cc2)C(=O)N[C@@H](Cc2cccc3ccccc23)C(=O)N(C)[C@@H](Cc2c[nH]cn2)C(=O)N[C@H](C(=O)N[C@@H](Cc2ccccc2)C(=O)O)[C@@H](C)O)NC1=O) [Hy-CADWVCY-[1-Nal]-[N-Me-His]-TF-OH] | > 1000
H-CRTWVCYWHVFG-NH2 (disulfide 1-6 (inferred)) [Hy-CRTWVCYWHVFG-NH2] | > 1000
Ac-[dK]SCADWVCYWHTFG-OH (disulfide 3-8 (inferred)) [Ac-[(D)Lys]-SCADWVCYWHTFG-OH] | > 1000
H-[βAla]SCADWVCYWHTFG-OH (disulfide 3-8 (inferred)) [Hy-[β-Ala]-SCADWVCYWHTFG-OH] | > 1000
KACADWVCYWHTFG (Ac-; [(D)Lys]; [β-Ala]; disulfide) [Ac-[(D)Lys]-[β-Ala]-CADWVCYWHTFG-OH] | > 1000
KCADWVCYWHTFG (Ac-; [(D)Lys]; disulfide) [Ac-[(D)Lys]-CADWVCYWHTFG-OH] | > 1000
H-CSDWRCYWHVFG-NH2 (disulfide 1-6 (inferred)) [Hy-CSDWRCYWHVFG-NH2] | > 1000
CADXVCYWHTFG ([1-Nal]; -NH2; disulfide) [Hy-CAD-[1-Nal]-VCYWHTFG-NH2] | > 1000
CADXVCYWHTFG (not fully specified; [1-BIP]; -NH2; disulfide) [Hy-CAD-[1-BIP]-VCYWHTFG-NH2] | > 1000
CADWXCYXHTF ([Sarc]; [1-Nal]; disulfide) [Hy-CADW-[Sarc]-CY-[1-Nal]-HTF-OH] | > 1000
H-CADWCCYWCTFG-NH2 (disulfide (positions not given here); also: disulfide pairing not given here) [Hy-CADWCCYWCTFG-NH2, listing 2 of 3 here] | > 1000
H-CADWCCYWCTFG-NH2 (disulfide (positions not given here); also: disulfide pairing not given here) [Hy-CADWCCYWCTFG-NH2, listing 3 of 3 here] | > 1000
H-CADWVCYWHTF-NH2 (disulfide 1-6 (inferred)) [Hy-CADWVCYWHTF-NH2] | > 1000
H-ACDWVCYWHTFG-NH2 (disulfide 2-6 (inferred)) [Hy-ACDWVCYWHTFG-NH2] | > 1000
H-CADWVCY[1Nal]HT[dF]-OH (disulfide 1-6 (inferred)) [Hy-CADWVCY-[1-Nal]-HT-[(D)Phe]-OH] | > 1000
H-CADWVCYWHT-NH2 (disulfide 1-6 (inferred)) [Hy-CADWVCYWHT-NH2] | > 1000
H-CADWVCY[1Nal]HTF-OH (disulfide 1-6 (inferred)) [Hy-CADWVCY-[1-Nal]-HTF-OH] | > 1000
CADWVCYXHTFX ([1-Nal]; [Sarc]; disulfide) [Hy-CADWVCY-[1-Nal]-HTF-[Sarc]-OH] | > 1000
